The record followed here is US20260201033A1 (LTZ THERAPEUTICS, published 2026).

Read-outs that look alike come from different tables or passages of the source.

In assay [1] the target is T1, Human CLEC5A His Tag protein (ACROBiosystems, Cat #: CLA-H5243) (human, UniProt Q9NY25 28-188, limits assumed).
T1 construct: Bought protein with a His tag; also called recombinant human CLEC5A protein
T1 sequence: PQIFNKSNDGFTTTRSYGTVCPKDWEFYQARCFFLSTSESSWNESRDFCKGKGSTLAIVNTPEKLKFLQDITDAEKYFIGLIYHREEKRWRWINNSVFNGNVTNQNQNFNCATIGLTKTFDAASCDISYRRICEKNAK
Put plainly: ELISA, plate coated with human CLEC5A.

In a further assay the target is EGFR on DLD-1 cells (UniProt P00533 25-1210, limits assumed). Nature of the assay: cell-based or functional assay.
In assay [2] the target is T2, human EGFR (ACROBiosystems, Cat #: EGR-H5222) (human, UniProt P00533 25-645).
T2 construct: Bought protein; also called recombinant human EGFR protein
Put plainly: ELISA, plate coated with human EGFR. In general terms: ELISA stands for enzyme-linked immunosorbent assay.

The target in assay [3] is T3, Human C-type lectin domain family 5 member A (CLEC5A), endogenous on human monocytes and M0 macrophages (human, UniProt Q9NY25 1-188).
T3 construct: Endogenous CLEC5A on primary human monocytes and monocyte-derived M0 macrophages; also called MDL-1; M0 macrophages (CLEC5A+) cells
T3 sequence: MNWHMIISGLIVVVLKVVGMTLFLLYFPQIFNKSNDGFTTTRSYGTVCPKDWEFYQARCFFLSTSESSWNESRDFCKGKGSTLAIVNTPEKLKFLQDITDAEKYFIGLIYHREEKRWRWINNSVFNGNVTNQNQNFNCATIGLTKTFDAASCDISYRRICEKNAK
Nature of the assay: flow cytometry on human M0 macrophages, anti-human IgG PE. On the technique in general: Flow cytometry measures light scatter and fluorescence of single cells or particles in a stream.

Assay [4] concerns the target T4, recombinant human CLEC5A, His Tag (ACROBiosystems, Cat #: NC1-H52H4) (human, UniProt Q9NY25 28-188).
T4 construct: Analyte of the BLI assay; Its catalogue number differs from that of the ELISA antigen; also called human CLEC5A (BLI analyte)
T4 sequence: T1 sequence
Put plainly: BLI, antibody 10 ug/ml captured on anti-human IgG Fc probe, analyte hCLEC5a; table row hCLEC5a 0.78 nM; all four rows print the same value. In general terms: Biolayer interferometry detects binding as a change in optical thickness at a sensor tip.

Assay [5] has as its target T5, mouse CLEC5A (R&D Systems, Cat #: 8438-CL-050) (mouse, UniProt Q9R007 26-190, limits assumed).
T5 construct: Bought protein; also called recombinant mouse CLEC5A protein
T5 sequence: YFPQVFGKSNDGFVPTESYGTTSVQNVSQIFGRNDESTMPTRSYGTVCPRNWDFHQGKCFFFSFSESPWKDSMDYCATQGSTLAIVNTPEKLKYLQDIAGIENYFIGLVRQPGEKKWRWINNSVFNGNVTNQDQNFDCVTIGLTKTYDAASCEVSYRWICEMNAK
Put plainly: ELISA, plate coated with mouse CLEC5A.

In assay [6] the target is T3, Human C-type lectin domain family 5 …. Nature of the assay: flow cytometry on human M0 macrophages, anti-human IgG PE. This is another data set of the same source.
Assay [7] concerns the target T4, recombinant human CLEC5A, His Tag …. Put plainly: BLI, antibody 10 ug/ml captured on anti-human IgG Fc probe, analyte hCLEC5a; table row hCLEC5a 6.25 nM; all four rows print the same value.
Assay [8] addresses T1, Human CLEC5A His Tag protein …. Put plainly: ELISA, plate coated with human CLEC5A. The source holds these as a separate data set.
The target of assay [9] is T3, Human C-type lectin domain family 5 …. Nature of the assay: flow cytometry on human M0 macrophages (CLEC5A+), anti-human IgG PE, MFI (PE).
In assay [10] the target is T4, recombinant human CLEC5A, His Tag …. Put plainly: BLI, antibody 10 ug/ml captured on anti-human IgG Fc probe, analyte hCLEC5a; table row hCLEC5a 3.12 nM; all four rows print the same value.
The target is the same in assay [11]. Put plainly: BLI, antibody 10 ug/ml captured on anti-human IgG Fc probe, analyte hCLEC5a; table row hCLEC5a 1.56 nM; all four rows print the same value.

B1: EGFR2/5C7 (2+2 A) Fc-optimized (bispecific antibody, human IgG1, kappa)
heavy: QVQLQQSGAEVKKPGSSVKVSCKASGYTFTNYYIYWVRQAPGQGLEWIGGINPTSGGSNFNEKFKTRVTITADESSTTAYMELSSLRSEDTAFYFCTRQGLWFDSDGRGFDFWGQGTTVTVSSASTKGPSVFPLAPSSKSTSGGTAALGCLVKDYFPEPVTVSWNSGALTSGVHTFPAVLQSSGLYSLSSVVTVPSSSLGTQTYICNVNHKPSNTKVDKKVEPKSCDKTHTCPPCPAPELLAGPSVFLFPPKPKDTLMISRTPEVTCVVVDVSHEDPEVKFNWYVDGVEVHNAKTKPREEQYNSTYRVVSVLTVLHQDWLNGKEYKCKVSNKALPLPEEKTISKAKGQPREPQVYTLPPSRDELTKNQVSLTCLVKGFYPSDIAVEWESNGQPENNYKTTPPVLDSDGSFFLYSKLTVDKSRWQQGNVFSCSVMHEALHNHYTQKSLSLSPGK
light: DIQMTQSPSSLSASVGDRVTITCRSSQNIVHSNGNTYLDWYQQTPGKAPKLLIYKVSNRFSGVPSRFSGSGSGTDFTFTISSLQPEDIATYYCFQYSHVPWTFGQGTKLEIKRTVAAPSVFIFPPSDEQLKSGTASVVCLLNNFYPREAKVQWKVDNALQSGNSQESVTEQDSKDSTYSLSSTLTLSKADYEKHKVYACEVTHQGLSSPVTKSFNRGECGGGGSGGGGSGGGGSAIVMTQTPSSKSVPVGDTVTINCQASESVDRNNRLAWFQQKPGQPPKLLIYTTSTLASGVPSRFKGSGSGTHFTLTISDVVPDDAATYYCAGYRGAHTDGDAFGCGTEVVVKGGGGSGGGGSGGGGSGGGGSQSLEESGGDLVKPGASLTLTCTASGFSFSRSSYMCWVRQAPGKCLEWIGCLSVGDGHTYYASWAKGRFTISKTSSTSVTLQMTRLTAADTATYFCARAPSYSGDGGHGYDLWGPGTLVTVSS
notes: also called EGFR/CLEC5A (2+2 A) Fc-optimized antibody with EGFR portion of Nimotuzumab (EGFR2)
As a reminder, the EC50 is the concentration that produces a half-maximal response. Consider B1, for which the EC50 in assay [1] was 0.081 µg/mL; in assay [2], 0.12 µg/mL; in [3] it was 19.5 nM. In the assay with EGFR on DLD-1 cells, the “IC50 (nM), DLD-1 cell killing by M0 macrophages” value stood at 0.00471 nM.

B2: 5C7, chimeric rabbit/human IgG1 anti-CLEC5A antibody (Fc-silenced) (antibody, V domains shown)
VH: QSLEESGGDLVKPGASLTLTCTASGFSFSRSSYMCWVRQAPGKGLEWIGCLSVGDGHTYYASWAKGRFTISKTSSTSVTLQMTRLTAADTATYFCARAPSYSGDGGHGYDLWGPGTLVTVSS
VL: AIVMTQTPSSKSVPVGDTVTINCQASESVDRNNRLAWFQQKPGQPPKLLIYTTSTLASGVPSRFKGSGSGTHFTLTISDVVPDDAATYYCAGYRGAHTDGDAFGGGTEVVVK
notes: also called ch5C7; 5C7 Fc-silenced
What is called Kd is the concentration at which binding is half-saturated. Broadly, the koff is the rate constant with which the complex falls apart. As a reminder, the kon is the second-order rate constant of association. The EC50 (read off the curve) is the concentration giving half of the maximal effect. Read a low EC50 (read off the curve) as higher potency in that assay. As to B2, the half-maximal effective concentration (EC50) in [1] worked out at 0.158 µg/mL; in assay [5], 0.194 nM; in assay [6], 3.93 nM; in assay [8] it was 0.9 nM; in [3], 0.49 nM. The Kd in [4], in [7], in assay [10] and in [11] was 0.15 nM in each case. Also, the koff in [4], in assay [7], in assay [10] and in [11] was 0.000189 s⁻¹ each time. Further, the kon in [4], in [7], in [10] and in assay [11] was 1.26e+06 M⁻¹ s⁻¹ in each case. Also, the “EC50 (read off the curve)” value in assay [9] was about 0.8 nM.
